Molecular target: ehd2_mouse Ehd2 (UniProt Q8BH64)
Sequence of UniProt Q8BH64 (Q8BH64 whole entry): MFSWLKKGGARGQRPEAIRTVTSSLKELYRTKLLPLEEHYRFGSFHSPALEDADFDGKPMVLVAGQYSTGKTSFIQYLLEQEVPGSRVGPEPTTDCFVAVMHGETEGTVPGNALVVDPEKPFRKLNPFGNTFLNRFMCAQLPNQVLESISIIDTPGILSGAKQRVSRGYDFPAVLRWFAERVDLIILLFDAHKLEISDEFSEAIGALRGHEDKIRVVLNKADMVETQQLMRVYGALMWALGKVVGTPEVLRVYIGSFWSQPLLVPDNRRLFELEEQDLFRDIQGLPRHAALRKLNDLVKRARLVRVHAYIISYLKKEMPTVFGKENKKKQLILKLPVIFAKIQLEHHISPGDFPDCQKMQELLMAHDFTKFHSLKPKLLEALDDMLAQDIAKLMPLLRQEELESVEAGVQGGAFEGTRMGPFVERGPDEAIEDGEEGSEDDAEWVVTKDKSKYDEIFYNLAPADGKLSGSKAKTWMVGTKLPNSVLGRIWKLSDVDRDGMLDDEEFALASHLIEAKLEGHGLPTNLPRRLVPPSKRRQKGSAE

effect of a mutation on the interaction: decreasing interaction
Substance: Myoferlin (Homo sapiens), Q9NZM1 N238C

Reference: IntAct's records for PubMed 18502764
